Test results: patent US10702592B2, “Peptides and combination of peptides for use in immunotherapy against NHL and other cancers” (Immatics Biotechnologies GmbH, priority 2016, dated 2020)

Columns and labels:
HLA-A*02:01 = HLA-A*02:01 (Homo sapiens, UniProt P04439, D140Y/D185E/D98H/E176V/E277Q/G131W/G231S/I119V/I121R/I166T/I218V/L300P/L318F/N151K/N90K/P208A/P217A/Q86G/Q94H/R138H/R169H/T345S); experiment: MHC binding assay (UV-ligand exchange, beta2m ELISA); settings: binding to HLA-A*02:01, UV-ligand exchange
Outline: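 Peptide–MHC complexes formed by UV-ligand exchange, cleaving a UV-sensitive peptide so the test peptide can bind. Exchange yield measured by ELISA: complexes captured on streptavidin-coated wells, diluted 100-fold, detected with HRP anti-β2m (1 h, 37 °C) and TMB at 450 nm, against refolded HLA-A*02:01/MLA-001 standards (15-500 ng/ml).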

CD8+ T cells = experiment: In vitro T-cell priming immunogenicity assay (aAPC with pMHC and anti-CD28, multimer staining); format: cell-based, human; settings: HLA-A*02 restricted peptides; percentage of positive wells and donors (among evaluable)
Description: In order to obtain information regarding the immunogenicity of the TUMAPs of the present invention, the inventors performed investigations using an in vitro T-cell priming assay based on repeated stimulations of CD8+ T cells with artificial antigen presenting cells (aAPCs) loaded with peptide/MHC complexes and anti-CD28 antibody.
In order to perform in vitro stimulations by artificial antigen presenting cells loaded with peptide-MHC complex (pMHC) and anti-CD28 antibody, the inventors first isolated CD8+ T cells from fresh HLA-A*02 leukapheresis products via positive selection using CD8 microbeads (Miltenyi Biotec, Bergisch-Gladbach, Germany) of healthy donors obtained from the University clinics Mannheim, Germany, after informed consent.
PBMCs and isolated CD8+ lymphocytes were incubated in T-cell medium (TCM) until use consisting of RPMI-Glutamax (Invitrogen, Karlsruhe, Germany) supplemented with 10% heat inactivated human AB serum (PAN-Biotech, Aidenbach, Germany), 100 U/ml Penicillin/100 μg/ml Streptomycin (Cambrex, Cologne, Germany), 1 mM sodium pyruvate (CC Pro, Oberdorla, Germany), 20 μg/ml Gentamycin (Cambrex). 2.5 ng/ml IL-7 (PromoCell, Heidelberg, Germany) and 10 U/ml IL-2 (Novartis Pharma, Nurnberg, Germany) were also added to the TCM at this step.
Generation of pMHC/anti-CD28 coated beads, T-cell stimulations and readout was performed in a highly defined in vitro system using four different pMHC molecules per stimulation condition and 8 different pMHC molecules per readout condition.
The purified co-stimulatory mouse IgG2a anti human CD28 Ab 9.3 (Jung et al., 1987) was chemically biotinylated using Sulfo-N-hydroxysuccinimidobiotin as recommended by the manufacturer (Perbio, Bonn, Germany). Beads used were 5.6 μm diameter streptavidin coated polystyrene particles (Bangs Laboratories, Illinois, USA).
800.000 beads/200 μl were coated in 96-well plates in the presence of 4×12.5 ng different biotin-pMHC, washed and 600 ng biotin anti-CD28 were added subsequently in a volume of 200 μl. Stimulations were initiated in 96-well plates by co-incubating 1×10^6 CD8+ T cells with 2×10^5 washed coated beads in 200 μl TCM supplemented with 5 ng/ml IL-12 (PromoCell) for 3 days at 37° C. Half of the medium was then exchanged by fresh TCM supplemented with 80 U/ml IL-2 and incubating was continued for 4 days at 37° C. This stimulation cycle was performed for a total of three times. For the pMHC multimer readout using 8 different pMHC molecules per condition, a two-dimensional combinatorial coding approach was used as previously described (Andersen et al., 2012) with minor modifications encompassing coupling to 5 different fluorochromes. Finally, multimeric analyses were performed by staining the cells with Live/dead near IR dye (Invitrogen, Karlsruhe, Germany), CD8-FITC antibody clone SK1 (BD, Heidelberg, Germany) and fluorescent pMHC multimers. For analysis, a BD LSRII SORP cytometer equipped with appropriate lasers and filters was used. Peptide specific cells were calculated as percentage of total CD8+ cells. Evaluation of multimeric analysis was done using the FlowJo software (Tree Star, Oregon, USA). In vitro priming of specific multimer+CD8+ lymphocytes was detected by comparing to negative control stimulations.

Peptide exchange (MHC class I binding score, peptide exchange yield) (HLA-A*02:01)	Substance	Wells positive [%] (CD8+ T cells)
“+++” (≥50 = +++)	21 (ALFKEAYSL; listed as Homo sapiens) [compound 21]	“+” (<20% = +)
“+++” (≥50 = +++)	8 (ALYAVIEKA; listed as Homo sapiens) [compound 8]	“+” (<20% = +)
“++++” (≥75% = ++++)	254 (FLYSETWNI; listed as Homo sapiens) [compound 254]	“+” (<20% = +)
“++++” (≥75% = ++++)	41 (ILASIFETV; listed as Homo sapiens) [compound 41]	“+++” (50% - 69% = +++)
“+++” (≥50 = +++)	29 (ILSDVTQGL; listed as Homo sapiens) [compound 29]	“+” (<20% = +)
“+++” (≥50 = +++)	46 (FLVEEIFQT; listed as Homo sapiens) [compound 46]	“+” (<20% = +)
“++++” (≥75% = ++++)	33 (LLANIVPIAMLV; listed as Homo sapiens) [compound 33]	“+” (<20% = +)
“+++” (≥50 = +++)	28 (FLSNANPSL; listed as Homo sapiens) [compound 28]	“++++” (≥70% = ++++)
“++++” (≥75% = ++++)	74 (SLDLRPLEV; listed as Homo sapiens) [compound 74]	“++” (20% - 49% = ++)
“++++” (≥75% = ++++)	53 (FLREYFERL; listed as Homo sapiens) [compound 53]	“+++” (50% - 69% = +++)
“+++” (≥50 = +++)	1 (LLSGQLPTI; listed as Homo sapiens) [compound 1]	“+++” (50% - 69% = +++)
“++++” (≥75% = ++++)	40 (FLNSVIVDL; listed as Homo sapiens) [compound 40]	“+++” (50% - 69% = +++)
“++++” (≥75% = ++++)	19 (VLEAILPLV; listed as Homo sapiens) [compound 19]	“+” (<20% = +)
“++++” (≥75% = ++++)	261 (FLPETRIMTSV; listed as Homo sapiens) [compound 261]	“+” (<20% = +)
“++++” (≥75% = ++++)	7 (NLLGMIFSM; listed as Homo sapiens) [compound 7]	“++++” (≥70% = ++++)
“+++” (≥50 = +++)	17 (VIIPLLSSV; listed as Homo sapiens) [compound 17]	“++” (20% - 49% = ++)
“+++” (≥50 = +++)	13 (HLVPASWKL; listed as Homo sapiens) [compound 13]	“+++” (50% - 69% = +++)
“+++” (≥50 = +++)	36 (VILDIPLLFET; listed as Homo sapiens) [compound 36]	“++” (20% - 49% = ++)
“+++” (≥50 = +++)	26 (FLGSFIDHV; listed as Homo sapiens) [compound 26]	“+” (<20% = +)
